Experimental data published in patent publication US20110263454A1, “Methods of Identifying Functional Characteristics of Promoters, Transcription Modifying Proteins and Transcription Modulating Agents” (Salk Institute for Biological Studies, priority 2008, published 2011).

B1: NR4a2: NR4a2 (NR4A2; NURR1), nuclear hormone receptor cDNA driver (protein, UniProt P43354 1-598, looked up)
Nuclear receptor subfamily 4 …: MPCVQAQYGSSPQGASPASQSYSYHSSGEYSSDFLTPEFVKFSMDLTNTEITATTSLPSFSTFMDNYSTGYDVKPPCLYQMPLSGQQSSIKVEDIQMHNYQQHSHLPPQSEEMMPHSGSVYYKPSSPPTPTTPGFQVQHSPMWDDPGSLHNFHQNYVATTHMIEQRKTPVSRLSLFSFKQSPPGTPVSSCQMRFDGPLHVPMNPEPAGSHHVVDGQTFAVPNPIRKPASMGFPGLQIGHASQLLDTQVPSPPSRGSPSNEGLCAVCGDNAACQHYGVRTCEGCKGFFKRTVQKNAKYVCLANKNCPVDKRRRNRCQYCRFQKCLAVGMVKEVVRTDSLKGRRGRLPSKPKSPQEPSPPSPPVSLISALVRAHVDSNPAMTSLDYSRFQANPDYQMSGDDTQHIQQFYDLLTGSMEIIRGWAEKIPGFADLPKADQDLLFESAFLELFVLRLAYRSNPVEGKLIFCNGVVLHRLQCVRGFGEWIDSIVEFSSNLQNMNIDISAFSCIAALAMVTERHGLKEPKRVEELQNKIVNCLKDHVTFNNGGLNRPNYLSKLLGKLPELRTLCTQGLQRIFYLKLEDLVPPPAIIDKLFLDTLPF
B2: hMR: Mineralocorticoid Receptor (NR3C2, MR), cDNA driver (protein, UniProt P08235 1-984, looked up)
Mineralocorticoid receptor: METKGYHSLPEGLDMERRWGQVSQAVERSSLGPTERTDENNYMEIVNVSCVSGAIPNNSTQGSSKEKQELLPCLQQDNNRPGILTSDIKTELESKELSATVAESMGLYMDSVRDADYSYEQQNQQGSMSPAKIYQNVEQLVKFYKGNGHRPSTLSCVNTPLRSFMSDSGSSVNGGVMRAVVKSPIMCHEKSPSVCSPLNMTSSVCSPAGINSVSSTTASFGSFPVHSPITQGTPLTCSPNVENRGSRSHSPAHASNVGSPLSSPLSSMKSSISSPPSHCSVKSPVSSPNNVTLRSSVSSPANINNSRCSVSSPSNTNNRSTLSSPAASTVGSICSPVNNAFSYTASGTSAGSSTLRDVVPSPDTQEKGAQEVPFPKTEEVESAISNGVTGQLNIVQYIKPEPDGAFSSSCLGGNSKINSDSSFSVPIKQESTKHSCSGTSFKGNPTVNPFPFMDGSYFSFMDDKDYYSLSGILGPPVPGFDGNCEGSGFPVGIKQEPDDGSYYPEASIPSSAIVGVNSGGQSFHYRIGAQGTISLSRSARDQSFQHLSSFPPVNTLVESWKSHGDLSSRRSDGYPVLEYIPENVSSSTLRSVSTGSSRPSKICLVCGDEASGCHYGVVTCGSCKVFFKRAVEGQHNYLCAGRNDCIIDKIRRKNCPACRLQKCLQAGMNLGARKSKKLGKLKGIHEEQPQQQQPPPPPPPPQSPEEGTTYIAPAKEPSVNTALVPQLSTISRALTPSPVMVLENIEPEIVYAGYDSSKPDTAENLLSTLNRLAGKQMIQVVKWAKVLPGFKNLPLEDQITLIQYSWMCLSSFALSWRSYKHTNSQFLYFAPDLVFNEEKMHQSAMYELCQGMHQISLQFVRLQLTFEEYTIMKVLLLLSTIPKDGLKSQAAFEEMRTNYIKELRKMVTKCPNNSGQSWQRFYQLTKLLDSMHDLVSDLLEFCFYTFRESHALKVEFPAMLVEIISDQLPKVESGNAKPLYFHRK
B3: PR: Progesterone Receptor (NR3C3), cDNA driver (protein, UniProt P06401 1-933, looked up)
Progesterone receptor: MTELKAKGPRAPHVAGGPPSPEVGSPLLCRPAAGPFPGSQTSDTLPEVSAIPISLDGLLFPRPCQGQDPSDEKTQDQQSLSDVEGAYSRAEATRGAGGSSSSPPEKDSGLLDSVLDTLLAPSGPGQSQPSPPACEVTSSWCLFGPELPEDPPAAPATQRVLSPLMSRSGCKVGDSSGTAAAHKVLPRGLSPARQLLLPASESPHWSGAPVKPSPQAAAVEVEEEDGSESEESAGPLLKGKPRALGGAAAGGGAAAVPPGAAAGGVALVPKEDSRFSAPRVALVEQDAPMAPGRSPLATTVMDFIHVPILPLNHALLAARTRQLLEDESYDGGAGAASAFAPPRSSPCASSTPVAVGDFPDCAYPPDAEPKDDAYPLYSDFQPPALKIKEEEEGAEASARSPRSYLVAGANPAAFPDFPLGPPPPLPPRATPSRPGEAAVTAAPASASVSSASSSGSTLECILYKAEGAPPQQGPFAPPPCKAPGASGCLLPRDGLPSTSASAAAAGAAPALYPALGLNGLPQLGYQAAVLKEGLPQVYPPYLNYLRPDSEASQSPQYSFESLPQKICLICGDEASGCHYGVLTCGSCKVFFKRAMEGQHNYLCAGRNDCIVDKIRRKNCPACRLRKCCQAGMVLGGRKFKKFNKVRVVRALDAVALPQPVGVPNESQALSQRFTFSPGQDIQLIPPLINLLMSIEPDVIYAGHDNTKPDTSSSLLTSLNQLGERQLLSVVKWSKSLPGFRNLHIDDQITLIQYSWMSLMVFGLGWRSYKHVSGQMLYFAPDLILNEQRMKESSFYSLCLTMWQIPQEFVKLQVSQEEFLCMKVLLLLNTIPLEGLRSQTQFEEMRSSYIRELIKAIGLRQKGVVSSSQRFYQLTKLLDNLHDLVKQLHLYCLNTFIQSRALSVEFPEMMSEVIAAQLPKILAGMVKPLLFHKK

Test system: hG6PD promoter
Assay: NHR-promoter luciferase screen, hG6PD promoter
Assay type: cell-based, human
Conditions: G6PD promoter reporter; co-transfected HR, without or with its ligand
Procedure, shortened: (§1)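 CV-1 cells were co-transfected with 50 ng NHR (homodimer or NHR/RXR heterodimer), 100 ng promoter-luciferase construct and 50 ng LacZ. Luciferase was normalized to LacZ and to a no-NHR/no-ligand control.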

Molecule	Luc. act., normalized to lacZ
B1	41.1
B2	35.2
B3	45.4

Same assay, conditions: G6PD promoter reporter; co-transfected HR, without or with its ligand; relative to control

Molecule	Normalized Luc. act., normalized to control
B1	1.1
B2	0.9
B3	1.2

Same assay, conditions: hG6PD promoter-luciferase, CV-1 cells, NHR +/- ligand, control = 1.00

Molecule	luciferase activity normalized to lacZ activity and to a control, hG6PD
B1	1.10
B2	0.94
B3	1.22

Test system: mUCP2 promoter
Assay: NHR-promoter luciferase screen, mUCP2 promoter
Assay type: cell-based, mouse
Conditions: mUCP2 promoter reporter; co-transfected HR, with or without its ligand
Procedure, shortened: as §1

Molecule	Luc. act., normalized to lacZ
B1	129.8
B2	58.8
B3	178.8

Same assay, conditions: mUCP2 promoter reporter; co-transfected HR, with or without its ligand; relative to control

Molecule	Normalized Luc. act., normalized to control
B1	1.2
B2	0.5
B3	1.6

Same assay, conditions: mUCP2 promoter-luciferase, CV-1 cells, NHR +/- ligand, control = 1.00

Molecule	luciferase activity normalized to lacZ activity and to a control, mUCP2
B1	1.18
B2	0.54
B3	1.63

Test system: hIRF7 promoter
Assay: NHR-promoter luciferase screen, hIRF7 promoter
Assay type: cell-based, human
Conditions: IRF7 promoter reporter; HR without or with its ligand; relative to control
Procedure, shortened: as §1

Molecule	Normalized Luc. act., normalized to control
B1	0.9
B2	0.8
B3	1.3

Same assay, conditions: IRF7 promoter reporter; hormone receptor (HR) without or with its ligand

Molecule	Luc. act., normalized to lacZ
B1	23.2
B2	21.1
B3	33.0

Same assay, conditions: transcription factor +/- ligand; control = 1.00

Molecule	hIRF7 promoter reporter activity
B1	0.88
B2	0.80
B3	1.25

Test system: hCYP3A4 promoter
Assay: NHR-promoter luciferase screen, hCYP3A4 promoter
Assay type: cell-based, human
Conditions: CYP3A4 promoter; HR/ligand component
Procedure, shortened: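 CV-1 cells co-transfected with NHR homodimer or NHR/RXR heterodimer (pcDNA3.1, C-terminal V5H6 tag), promoter-luciferase construct and LacZ transfection control. Orphan receptors screened without ligand. Luciferase normalized to LacZ and to no-NHR/no-ligand control.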

Molecule	Luc. act., normalized to lacZ	Normalized Luc. act., normalized to control
B1	3.5	0.8
B2	2.6	0.6
B3	6.5	1.5

Same assay, conditions: transcription factor +/- ligand; control = 1.00

Molecule	hCYP3A4 promoter reporter activity
B1	0.79
B2	0.58
B3	1.47

Test system: RevErba promoter
Assay: NHR-promoter luciferase screen, RevErba (RVRa) promoter
Assay type: cell-based
Parameters: key to mRevErba promoter reporter activity / Normalized Luc. act., normalized to control: luciferase activity normalized to lacZ and to control (no NHR/ligand)
Conditions: RVRa promoter; HR component without or with ligand
Procedure, shortened: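 CV-1 cells co-transfected with NHR (pcDNA3.1, C-terminal V5H6 tag) as homodimer or RXR heterodimer, RevErbα promoter–luciferase reporter and LacZ transfection control; ligand added where applicable. Luciferase normalized to LacZ and to no-NHR/no-ligand control.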

Molecule	Luc. act., normalized to lacZ	Normalized Luc. act., normalized to control
B1	20.6	0.7
B2	13.7	0.5
B3	24.1	0.9

Same assay, conditions: RVRa promoter; given only where activity is below control

Molecule	negative reciprocal of normalized Luc. act. (fold repression; Table 33)
B1	−1.357
B2	−2.036
B3	−1.16

Same assay, conditions: RVRa promoter; log10 of activity normalized to control

Molecule	normalized Luc. act. on a logarithmic scale (column without head, Table 33)
B1	−0.13
B2	−0.31
B3	−0.06

Same assay, conditions: transcription factor +/- ligand; control = 1.00

Molecule	mRevErba promoter reporter activity
B1	0.74
B2	0.49
B3	0.86

Test system: hTNFa promoter
Assay: NHR-promoter luciferase screen, hTNFa promoter
Assay type: cell-based, human
Conditions: TNFa promoter; HR component without or with ligand
Procedure, shortened: as §1

Molecule	Luc. act., normalized to lacZ	Normalized Luc. act., normalized to control
B1	735.5	0.7
B2	614.3	0.6
B3	1214.8	1.2

Same assay, conditions: transcription factor +/- ligand; control = 1.00

Molecule	hTNFa promoter reporter activity
B1	0.75
B2	0.62
B3	1.24
